Marks after values point to notes of the source that are not given here. One block for each compound: values may come before it.
Tests used:
[1] = Thermostability assay using SYPRO Orange; format: physicochemical
Method: The stability of ATB200 in acidic or neutral pH buffers was evaluated in a thermostability assay using SYPRO Orange, as the fluorescence of the dye increases when proteins denature. […] As summarized in Table 6, the addition of AT2221 increased the melting temperature (Tm) of ATB200 by nearly 10° C.

[2] = set-up: species or system human; conditions: in vivo
Method: Preclinical studies were conducted in Gaa knockout mice to evaluate the pharmacokinetics (PK) and efficiency of glycogen reduction at varying ATB200 enzyme replacement therapy (ERT) and AT2221 chaperone doses. […] Study ATB200-02 (NCT02675465) was then designed as an open-label fixed-sequence, ascending dose, first-in-human, phase 1/2 study to evaluate the safety, tolerability, PK, pharmacodynamics (PD), and efficacy of ATB200 co-administered with AT2221 in patients with Pompe disease. FIGS. 19A-19B present the ATB200-02 study design. Ambulatory patients who have previously received enzyme replacement therapy with alglucosidase alfa are referred to as ambulatory ERT-switch (or ERT-switch ambulatory) patients or Cohort 1 patients. Nonambulatory patients who have previously received enzyme replacement therapy with alglucosidase alfa are referred to as nonambulatory ERT-switch (or ERT-switch nonambulatory) patients or Cohort 2 patients. Ambulatory patients who have not previously received enzyme replacement therapy with alglucosidase alfa are referred to as ERT-naïve (or ERT-naïve ambulatory) patients or Cohort 3 patients. Total GAA protein concentrations in plasma for ATB200 at 5 mg/kg, 10 mg/kg, and 20 mg/kg were determined by validated LC-MS/MS quantification of rhGAA-specific “signature” peptide(s) […] (primary) and T50 (confirmatory) for 11 Cohort 1 patients who completed Stages 1 and 2, as well as for five Cohort 2 patients who completed the PK study in Stage 3. For Stage 1, blood samples for plasma total GAA protein concentration were collected prior to the start of ATB200 infusion and at 1, 2, 3, 3.5, 4, 4.5, 5, 6, 8, 10, 12, and 24 hour(s) after the start of infusion. For Stage 2 and Stage 3, blood samples for plasma total GAA protein concentration were collected prior to the start of infusion and at 1, 2, 3, 3.5, 4, 4.5, 5, 6, 8, 10, 12, and 24 hour(s) after the start of infusion.

Gaa KO mice [3] = experiment: Single fiber analysis, LAMP1/LC3 co-immunofluorescence; format: in vivo
Description: FIG. 17 depicts co-immunofluorescent staining of LAMP1 (green) (see for example, “B”) and LC3 (red) (see, for example, “A”) in single fibers isolated from the white gastrocnemius of Gaa KO mice treated with a vehicle, alglucosidase alfa, or ATB200. “C” depicts clearance of autophagic debris and absence of enlarged lysosome. A minimum of 30 fibers were examined from each animal.
As a result, a significant portion of muscle fibers analyzed (36-60%) from ATB200-treated mice appeared normal or near-normal.

[4] = system: normal and Pompe fibroblast cell lines; experiment: Cellular uptake of rhGAA in fibroblasts; format: cell-based; conditions: for concentration that saturates cellular receptors: 16-hr incubation, internalized GAA by 4MU-α-Glucoside hydrolysis; for uptake efficiency constant (Kuptake): extrapolated from uptake results
Method: The relative cellular uptake of ATB200 and Lumizyme® rhGAA were compared using normal and Pompe fibroblast cell lines. Comparisons involved 5-100 nM of ATB200 according to the invention with 10-500 nM conventional rhGAA product Lumizyme® After 16-hr incubation, external rhGAA was inactivated with TRIS base and cells were washed 3-times with PBS prior to harvest. Internalized GAA measured by 4MU-α-Glucoside hydrolysis and was graphed relative to total cellular protein and the results appear in FIGS. 11A-11C.
ATB200 was also shown to be efficiently internalized into cells. […] ATB200 saturates cellular receptors at about 20 nM, while about 250 nM of Lumizyme® is needed to saturate cellular receptors.

CIMPR [5] = molecular target: T1, CIMPR (Homo sapiens, UniProt P11717); experiment: CIMPR plate binding assay
T1 sequence (P11717 41-2491, species assumed): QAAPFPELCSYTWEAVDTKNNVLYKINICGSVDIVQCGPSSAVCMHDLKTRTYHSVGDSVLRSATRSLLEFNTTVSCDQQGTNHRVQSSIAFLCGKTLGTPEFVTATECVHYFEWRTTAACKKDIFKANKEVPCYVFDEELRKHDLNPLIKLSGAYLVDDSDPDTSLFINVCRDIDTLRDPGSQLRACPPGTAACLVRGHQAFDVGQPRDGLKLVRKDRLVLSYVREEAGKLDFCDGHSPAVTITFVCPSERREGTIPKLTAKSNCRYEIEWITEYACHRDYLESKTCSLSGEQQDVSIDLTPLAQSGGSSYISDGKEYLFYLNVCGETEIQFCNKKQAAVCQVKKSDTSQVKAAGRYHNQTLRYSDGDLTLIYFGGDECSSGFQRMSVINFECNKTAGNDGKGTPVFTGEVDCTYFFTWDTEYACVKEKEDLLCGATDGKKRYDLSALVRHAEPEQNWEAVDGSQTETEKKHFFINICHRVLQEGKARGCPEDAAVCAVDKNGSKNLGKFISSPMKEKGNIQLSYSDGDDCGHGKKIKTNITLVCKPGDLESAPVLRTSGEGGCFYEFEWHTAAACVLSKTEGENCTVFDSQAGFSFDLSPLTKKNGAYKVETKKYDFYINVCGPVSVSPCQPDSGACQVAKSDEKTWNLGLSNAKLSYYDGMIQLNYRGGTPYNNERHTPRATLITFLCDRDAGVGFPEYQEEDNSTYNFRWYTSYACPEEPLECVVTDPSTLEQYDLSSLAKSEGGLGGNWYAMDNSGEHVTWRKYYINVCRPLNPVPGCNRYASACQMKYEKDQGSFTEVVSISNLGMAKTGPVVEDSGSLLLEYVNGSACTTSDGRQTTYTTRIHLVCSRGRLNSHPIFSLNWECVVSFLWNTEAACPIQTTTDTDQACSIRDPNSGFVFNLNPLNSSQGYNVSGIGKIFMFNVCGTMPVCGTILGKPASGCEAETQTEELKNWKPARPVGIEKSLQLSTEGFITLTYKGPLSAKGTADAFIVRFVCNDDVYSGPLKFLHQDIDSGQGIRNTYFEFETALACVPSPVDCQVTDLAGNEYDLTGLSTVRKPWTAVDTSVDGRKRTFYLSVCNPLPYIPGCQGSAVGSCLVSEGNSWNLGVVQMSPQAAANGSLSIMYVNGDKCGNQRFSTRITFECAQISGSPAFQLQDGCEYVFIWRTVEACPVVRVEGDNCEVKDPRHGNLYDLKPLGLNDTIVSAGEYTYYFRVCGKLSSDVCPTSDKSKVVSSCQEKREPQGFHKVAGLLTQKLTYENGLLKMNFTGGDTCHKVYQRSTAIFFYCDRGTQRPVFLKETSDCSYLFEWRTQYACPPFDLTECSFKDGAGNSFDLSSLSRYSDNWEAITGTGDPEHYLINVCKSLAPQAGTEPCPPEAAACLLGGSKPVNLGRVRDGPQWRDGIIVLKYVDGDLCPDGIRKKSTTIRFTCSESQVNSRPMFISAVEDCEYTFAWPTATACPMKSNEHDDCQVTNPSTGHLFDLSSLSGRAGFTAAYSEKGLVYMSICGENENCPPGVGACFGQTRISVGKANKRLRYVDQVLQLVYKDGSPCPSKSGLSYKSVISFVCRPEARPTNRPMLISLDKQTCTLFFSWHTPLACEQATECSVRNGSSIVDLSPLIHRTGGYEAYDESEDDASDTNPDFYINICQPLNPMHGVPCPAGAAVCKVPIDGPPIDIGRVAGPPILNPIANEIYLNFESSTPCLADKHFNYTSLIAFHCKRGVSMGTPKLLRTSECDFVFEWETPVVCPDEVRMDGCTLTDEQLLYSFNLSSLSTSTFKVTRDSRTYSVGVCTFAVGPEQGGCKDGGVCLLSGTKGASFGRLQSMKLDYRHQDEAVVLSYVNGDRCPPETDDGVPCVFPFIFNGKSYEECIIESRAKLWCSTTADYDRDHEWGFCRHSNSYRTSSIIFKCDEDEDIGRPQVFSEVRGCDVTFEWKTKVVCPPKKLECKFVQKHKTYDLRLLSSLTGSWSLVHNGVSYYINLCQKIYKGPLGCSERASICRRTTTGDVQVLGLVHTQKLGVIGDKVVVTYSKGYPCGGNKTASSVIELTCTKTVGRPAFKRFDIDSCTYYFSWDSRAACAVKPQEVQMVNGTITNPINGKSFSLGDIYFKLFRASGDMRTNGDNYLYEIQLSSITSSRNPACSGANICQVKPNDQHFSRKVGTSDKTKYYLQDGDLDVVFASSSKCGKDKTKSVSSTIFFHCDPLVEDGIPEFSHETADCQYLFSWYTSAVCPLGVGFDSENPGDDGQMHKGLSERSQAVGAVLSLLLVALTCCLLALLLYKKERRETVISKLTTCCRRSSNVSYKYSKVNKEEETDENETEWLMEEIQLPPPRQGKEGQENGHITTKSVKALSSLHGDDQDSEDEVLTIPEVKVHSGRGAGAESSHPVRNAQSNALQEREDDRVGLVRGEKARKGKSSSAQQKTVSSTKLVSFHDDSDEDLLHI
Method: In addition to having a greater percentage of rhGAA that can bind to the CIMPR, it is important to understand the quality of that interaction. Lumizyme® and ATB200 receptor binding was determined using a CIMPR plate binding assay. Briefly, CIMPR-coated plates were used to capture GAA. Varying concentrations of rhGAA were applied to the immobilized receptor and unbound rhGAA was washed off. The amount of remaining rhGAA was determined by GAA activity. […] For Lumizyme®, there is on average only 10% of molecules having a bis-phosphorylated N-glycan. In contrast, on average every rhGAA molecule in ATB200 has at least one bis-phosphorylated N-glycan.
N-glycan analysis via MALDI-TOF mass spectrometry confirmed that on average each ATB200 molecule contains at least one natural bis-M6P N-glycan structure.

CIMPR [6] = molecular target: T1, CIMPR; experiment: CIMPR affinity chromatography; format: binding; conditions: CIMPR affinity column; fraction of total enzyme by GAA activity
Description: Multiple batches of the rhGAA according to the invention were produced in shake flasks and in perfusion bioreactors using CHO cell line GA-ATB200, the product of which is referred to as “ATB200.” Weak anion exchange (“WAX”) liquid chromatography was used to fractionate ATB200 rhGAA according to terminal phosphate and sialic acid. Elution profiles were generated by eluting the ERT with increasing amount of salt. The profiles were monitored by UV (A280 nm).
To evaluate the ability of the conventional rhGAAs in Myozyme® and Lumizyme® to interact with the CIMPR, the two conventional rhGAA preparations were injected onto a CIMPR affinity column (which binds rhGAA having M6P groups) and the flow through collected. The bound material was eluted with a free M6 gradient. Fractions were collected in 96-well plate and GAA activity assayed by 4MU-α-glucosidase substrate. The relative amounts of unbound (flow through) and bound (M6P eluted) rhGAA were determined based on GAA activity and reported as the fraction of total enzyme. […] Indeed, only 27% of the rhGAA in Myozyme® and 22% of the rhGAA in Lumizyme® contained M6P that can be productive to target it to the CIMPR on muscle cells.

Gaa KO mice [7] = experiment: Muscle fiber biomarkers LAMP1, LC3, dysferlin; format: in vivo
Method: The therapeutic effects of ATB200 and AT2221 were evaluated and compared against those of Alglucosidase alfa in Gaa KO mice. For the study, male Gaa KO (3- to 4-month old) and age-matched wild-type (WT) mice were used. Alglucosidase alfa was administered via bolus tail vein intravenous (IV) injection. In the co-administration regimen, AT2221 was administered via oral gavage (PO) 30 minutes prior to the IV injection of ATB200. Treatment was given biweekly. Treated mice were sacrificed after 14 days from the last administration and various tissues were collected for further analysis. Table 7 summarizes the study design:
Tissue samples were also analyzed for biomarker changes following the methods discussed in: Khanna R, et al. (2012), “The pharmacological chaperone AT2220 increases recombinant human acid α-glucosidase uptake and glycogen reduction in a mouse model of Pompe disease,” Plos One 7(7): e40776; and Khanna. […]
Similarly, intense LC3-positive aggregates in the muscle fibers of untreated Gaa KO mice signify the presence of autophagic zones and autophagy build-up. […] A similar observation was made when the expression of LC3 was assessed using western blot. […]
Dysferlin, a protein involved in membrane repair and whose deficiency/mistrafficking is associated with a number of muscular dystrophies, w as also assessed.

[8] = single fibers from white gastrocnemius

Compound: CCCCN1C[C@H](O)[C@@H](O)[C@H](O)[C@H]1CO [AT2221, (2R,3R,4R,5S)-1-butyl-2-(hydroxymethyl)piperidine-3,4,5-triol, reference compound]
- stabilization of ATB200 ([1]; pH 7.4): stabilized ATB200 at pH 7.4 in a concentration-dependent manner

Compound: Myozyme®: conventional rhGAA product containing alglucosidase alfa, marketed by Genzyme
- lysosome size and autophagic buildup compared to vehicle-treated mice (Gaa KO mice [3]; single fibers): did not show any significant difference
- rhGAA that binds to the CIMPR (CIMPR [6]): 27%
- rhGAA that did not bind to the CIMPR (CIMPR [6]): 73%

Compound: [199-arginine,223-histidine]prepro-α-glucosidase (human) [alglucosidase alfa, reference compound]
- Fibers with Autophagy Buildup (Gaa KO mice [3]; [8]): >90%
- Fibers with Normal or Near-normal Appearance (Gaa KO mice [3]; [8]): <10%
- effect on autophagy (Gaa KO mice [7]): modest

More lines, main results first:

- Kd (CIMPR [5]; M6P receptor plate binding assays, read-out: Ku, high-affinity binding to CIMPR): 2 to 4 nM
Compound: ATB200: rhGAA with a high content of N-glycans bearing mono-M6P and bis-M6P, produced from a GA-ATB200 CHO cell line
- increase in distribution half-life (α-phase) ([2]; human): 40%
- increase in partial AUC from time to maximum plasma concentration to 24 hours post-dose ([2]; human): 42.2%
- AUC ratio, signature peptide T50 vs T09 [2]: 1.00
- dose proportionality of ATB200 levels [2]: slightly greater-than-dose proportional
- plasma total GAA protein exposure, ERT-naive (Cohort 3) vs ERT-switch (Cohort 1) [2]: no statistically significant difference
- area with autophagic buildup (Gaa KO mice [3]; single fibers): reduced to various degrees
- Fibers with Autophagy Buildup (Gaa KO mice [3]; [8]): 40-64%*
- concentration that saturates cellular receptors [4]: about 20 nM
- internalization into normal and Pompe fibroblast cells ([4]; compared with Lumizyme): internalized to a greater degree than the conventional rhGAA product Lumizyme®
- uptake efficiency constant (Kuptake) [4]: 2-3 nm
- binding to CIMPR compared with Lumizyme (CIMPR [5]; CIMPR-coated plates, varying rhGAA concentrations): bound to CIMPR significantly better than Lumizyme®
- Tm ([1]; pH 5.2): 67.3 °C
- Tm ([1]; pH 7.4): 56.2 °C
- increase of melting temperature (Tm) on addition of AT2221 ([1]; pH 7.4): ~10 °C
- Tm ([1]; pH 7.4 + 10 μM AT2221): 61.6 °C
- Tm ([1]; pH 7.4 + 30 μM AT2221): 62.9 °C
- Tm ([1]; pH 7.4 + 100 μM AT2221): 66.0 °C

- rhGAA that binds to the CIMPR (CIMPR [6]): 22%
- rhGAA that did not bind to the CIMPR (CIMPR [6]): 78%
Compound: Lumizyme®: conventional rhGAA product containing alglucosidase alfa, marketed by Genzyme [reference compound]
- concentration that saturates cellular receptors [4]: about 250 nM
- uptake efficiency constant (Kuptake) [4]: 56 nM
